Reference: patent publication US9624471B2, “Methods for maturing cardiomyocytes and uses thereof” (UNIVERSITY OF WASHINGTON THROUGH ITS CENTER FOR …, priority 2013, dated 2017)

What was measured:
RUES2-CMs [1] = assay: Immunocytochemistry (α-actinin staining) and morphological analysis of lentivirally transduced cardiomyocytes; assay type: cell-based, human; settings: Lin28a OE CMs compared to EV control
Procedure: Undifferentiated human embryonic stem cell (hESCs) lines H7 (NIHhESCC-10-0061) and RUES2 (NIHhESC-09-0013) were expanded using mouse embryonic fibroblast-conditioned medium with 5 ng/ml basic fibroblast growth factor. H7-CMs were derived using previously reported protocols^1-3. RUES2-CMs were used for all functional analyses and these were derived using a cardiac progenitor cell differentiation protocol^4 derived from previously reported monolayer directed differentiation methods^1, 5, 6. In brief, this involves the induction of a monolayer of hESCs with activin A and bone morphogenetic protein-4 (BMP4) under serum- and insulin-free conditions. During the early stages of differentiation, the cells were also exposed to the Wnt agonist CHIR 99021 followed by the Wnt antagonist Xav939. From 7 days of in vitro differentiation, the cells were fed every alternate day with serum-free RPMI-B27 plus insulin media. After 20 days of in vitro differentiation, the cells were trypsinized and replated. Only those cell preparations that had at least 70% cardiac troponin T-positive CMs (as observed by flow cytometry) were used for further experiments. For experiments where the H7-CMs were cultured for around a year, the cells were replated after the 3rd and 11th month from day 0. At the 11th month, FACS analysis for cTnT was conducted and the CMs were split into three parts and were cultured as three independent replicates for another 1.5 months after which they were harvested for RNA extraction. IMR90iPSC-CMs cultured for 1 yr were replated at day 20 and split every 2 months for 12 months before harvesting for RNA extraction. To generate engineered cardiac tissue, the inventors used the procedure reported by Tulloch et al.^2 In brief, day 20 CMs are suspended in the collagen gel at 10,000/μl, and rod-shaped constructs of 25 μl (1 mm radius×8 mm length) were generated by casting in a preformed mold and warming to 37° C. The ends of the mold contain Velcro-like micro-fiber loops, and these become impregnated with gel+cell mixture. These tabs allow the constructs to be maintained under static tension, which facilitates alignment and differentiation of the CMs. The constructs were maintained in the serum-free RPMI-B27 plus glutamine media up to 2 weeks. For let-7 overexpression analysis, the CMs were transduced with the virus carrying the pLKO-let-7 or empty vector control pLKO plasmid at day 12 of the directed differentiation protocol. After overnight transduction the virus was removed, cells were rinsed with PBS and new media added. The samples were analyzed at day 30 from the initiation of differentiation.
All morphological analyses were carried out using at least 50 cells. Cells replated in chamber slides were fixed in 4% paraformaldehyde for 15 minutes followed by PBS wash. The fixed cells were blocked for an hour with 1.5% normal goat serum and incubated O/N with mouse alpha actinin (sigma) primary antibody. The primary antibody was rinsed with PBS and incubated with secondary antibody (Alexa fluor 488 [Goat anti mouse]) for an hour followed by nuclear staining using DAPI. For cell area and perimeter measurements, images were acquired and processed using ZEISS™ AXIO fluorescent microscope and AXIOVISION™ software. For sarcomere length, images were acquired and processed using LEICA™ TCS-SPE confocal microscope and LEICA™ software. These confocal images were used to select 1-2 myofibrils per cell with at least ten continuous, well-recognized alpha-actinin bands and divided the length value by the number of sarcomeres. The images were further analyzed using IMAGE J™ software.
For lenti-let-7 OE constructs, Pri-miR-let-7i and pri-miR-let-7g sequence was amplified from H7 genomic DNA using forward primer for let-7i-TCCGCGTGGTCCCGT; reverse primer for let-7i-ATTGTCCTCCGCGGCGC and forward primer for let-7g-AGAGTTCCTCCAGCGCTCC; reverse primer for let-7g-CCCCACTTGGCAGCTGGC, resulting in 153 bp and 154 bp products, respectively. […]

RUES2-CMs [2] = assay: mRNA and miRNA qPCR analysis in transduced RUES2-CMs; assay type: cell-based, human; settings: Lin28a OE hESC-CMs
Procedure: Undifferentiated human embryonic stem cell (hESCs) lines H7 (NIHhESCC-10-0061) and RUES2 (NIHhESC-09-0013) were expanded using mouse embryonic fibroblast-conditioned medium with 5 ng/ml basic fibroblast growth factor. H7-CMs were derived using previously reported protocols^1-3. RUES2-CMs were used for all functional analyses and these were derived using a cardiac progenitor cell differentiation protocol^4 derived from previously reported monolayer directed differentiation methods^1, 5, 6. In brief, this involves the induction of a monolayer of hESCs with activin A and bone morphogenetic protein-4 (BMP4) under serum- and insulin-free conditions. During the early stages of differentiation, the cells were also exposed to the Wnt agonist CHIR 99021 followed by the Wnt antagonist Xav939. From 7 days of in vitro differentiation, the cells were fed every alternate day with serum-free RPMI-B27 plus insulin media. After 20 days of in vitro differentiation, the cells were trypsinized and replated. Only those cell preparations that had at least 70% cardiac troponin T-positive CMs (as observed by flow cytometry) were used for further experiments. For experiments where the H7-CMs were cultured for around a year, the cells were replated after the 3rd and 11th month from day 0. […] The samples were analyzed at day 30 from the initiation of differentiation. […]

HECT293FT cells = assay: Lipofectamine transient transfection of plko-let-7g and plko-let-7g-E plasmids, mature let-7g and target expression after 24 hrs; assay type: cell-based; settings: 24 hrs after transfection
Procedure: FIGS. 20A-20B Modified let-7g (let-7g-E) is more efficient in generating mature let-7g in HECT293FT cells. Let-7g and a modified version of let-7g (plko-let-7g-E) were induced in hect 293 FT cells by introducing plko-let-7g and plko-let-7g-E plasmids with lipofectamine transient transfection assay. 24 hrs after transfection, cells were tested for mature let-7g expression. […] (FIG. 20B) Targets of let-7 are repressed when we over-express let-7g-E similar to that seen during over-expression of let-7g.

Molecule	cell area (RUES2-CMs [1])	circularity index (RUES2-CMs [1])	sarcomere length (RUES2-CMs [1])	cell perimeter (RUES2-CMs [1]; N=50 cells per condition)	let-7i and let-7g expression (RUES2-CMs [2])	Targets of let-7 expression (HECT293FT cells)	mature let-7g expression (HECT293FT cells; compared to EV and native let-7g)
Lin28a: Lin28a over-expressed in RUES2-CMs; LIN28 is the negative regulator of let-7 processing (protein, UniProt Q9H9Z2 2-209, looked up) Protein lin-28 homolog A: GSVSNQQFAGGCAKAAEEAPEEAPEDAARAADEPQLLHGAGICKWFNVRMGFGFLSMTARAGVALDPPVDVFVHQSKLHMEGFRSLKEGEAVEFTFKKSAKGLESIRVTGPGGVFCIGSERRPKGKSMQKRRSKGDRCYNCGGLDHHAKECKLPPQPKKCHFCQSISHMVASCPLKAQQGPSAQGKPTYFREEEEEIHSPTLLPEAQN	significant decrease	increase	significant decrease	significant decrease	down-regulated	–	–
let-7g-E: modified hsa-let-7g with mutated GGAG LIN28 binding motif, SEQ ID NO: 12 (also SEQ ID NO: 16) (nucleic acid, listed as Homo sapiens, listed as RNA, chemistry not fully specified) AGGCUGAGGUAGUAGUUUGUACAGUUUGAGGGUCUAUGAUACCACCCGGUACAUCAGAUAACUGUACAGGCCACUGCCUUGCCA	–	–	–	–	–	repressed	much higher expression
